Laboratory results reported in PMC11982451 (The Journal of Biological Chemistry, 2025).

Molecular target: T1, 2CARD domain of human RIG-I, residues 1-200, recombinant (human, UniProt O95786 1-200)
T1 sequence (looked up): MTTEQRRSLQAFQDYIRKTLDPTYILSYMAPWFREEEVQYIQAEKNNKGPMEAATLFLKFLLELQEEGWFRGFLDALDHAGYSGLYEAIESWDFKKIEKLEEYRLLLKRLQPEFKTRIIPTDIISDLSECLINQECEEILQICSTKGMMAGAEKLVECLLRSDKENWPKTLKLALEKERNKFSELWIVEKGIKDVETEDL
Test: NMR titration

binding result: binds
B1: PRYSPRY domain (PSpry) of human TRIM25, residues 433-630, recombinant (domain or fragment, UniProt Q14258 433-630, looked up)
chain: STSLKAKVLETFLAKSRPELLEYYIKVILDYNTAHNKVALSECYTVASVAEMPQNYRPHPQRFTYCSQVLGLHCYKKGIHYWEVELQKNNFCGVGICYGSMNRQGPESRLGRNSASWCVEWFNTKISAWHNNVEKTLPSTKATRVGVLLNCDHGFVIFFAVADKVHLMYKFRVDFTEALYPAFWVFSAGATLSICSPK
